Laboratory results from patent US20100233154A1, “TARGETED BINDING AGENTS DIRECTED TO HEPARANASE AND USES THEREOF 463” (MedImmune Limited, priority 2008, published 2010).

Key:
MCF7-Hpa1#19 cells = test: Accumulation of precursor heparanase in conditioned medium and cell lysates (Western blot); format: cell-based, human; settings: 25 μg per ml, 24 hrs
Method: MCF7-Hpa1#19 cells were cultured until confluent and then grown overnight (˜12 hrs) at 37° C. in serum free medium. Following overnight incubation, culture medium was replaced with serum free medium containing 25 μg per ml anti-heparanase monoclonal antibody 10E9.1 or a control IgG2 antibody (Sigma Cat. No. 1504-1MG) and incubated for a further 24 hrs at 37° C. Cell cultures were then treated for 2 hrs with PMA 0.1-10 μM, to stimulate heparanase expression (Sasaki N et al, J Immunol. 172: 3830, 2004). Conditioned medium from the cultures was harvested and concentrated 10-fold and protein lysates in RIPA buffer were prepared from the cells. Proteins from conditioned medium or cell lysates were separated on […] gels as described previously and heparanase was detected using an anti-heparanase polyclonal antibody (Biochain Cat. No. Z5010104).

[1] = biological target: T1, recombinant heparanase captured with rabbit anti-heparanase antibody (Homo sapiens, UniProt Q9Y251); test: ELISA binding to antibody-captured heparanase; settings: antibody capture
T1 construct: Heparanase 8 and 50 kDa sub-units were cloned into pacGP67 as Sma 1-EcoR1 fragments; made in house; host or cells: Hi5 insect cells, baculovirus (pFastBac Dual)
T1 sequence (Q9Y251 158-543 limits assumed): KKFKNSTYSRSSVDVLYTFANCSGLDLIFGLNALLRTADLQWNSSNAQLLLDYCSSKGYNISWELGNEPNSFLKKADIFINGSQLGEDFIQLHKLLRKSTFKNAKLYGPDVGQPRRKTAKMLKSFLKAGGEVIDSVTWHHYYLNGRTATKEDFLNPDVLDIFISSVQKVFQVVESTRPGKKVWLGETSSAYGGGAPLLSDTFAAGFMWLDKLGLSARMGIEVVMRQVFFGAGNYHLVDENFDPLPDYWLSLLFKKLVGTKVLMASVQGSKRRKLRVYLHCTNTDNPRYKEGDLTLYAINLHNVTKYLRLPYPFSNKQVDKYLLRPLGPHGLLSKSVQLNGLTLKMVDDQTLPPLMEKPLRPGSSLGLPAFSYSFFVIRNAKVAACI
T1 sequence (Q9Y251 36-109 limits assumed): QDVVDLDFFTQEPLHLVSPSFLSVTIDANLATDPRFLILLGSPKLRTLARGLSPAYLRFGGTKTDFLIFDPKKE
Method: (§1) Titres of antibodies from Campaigns 1 and 2 were determined in an ELISA. Costar 3368 medium binding plates were coated directly with recombinant human heparanase or plates were coated with Rabbit anti-heparanase antibody (Raybiotech, Cat. IP-14-155) to capture recombinant heparanase. Directly coated heparanase was detected in three separate plates by mouse (InSight Cat. INS-26-1-0000), goat (Santa Cruz, Cat. sc26136) or rabbit (Raybiotech, Cat. IP-14-155) anti-heparanase antibodies, and quantified using appropriate secondary antibodies. Antibody captured heparanase was detected using mouse anti-heparanase (Insight Cat. INS-26-1-0000). At the end of the immunisation program, fusions were performed using mouse myeloma cells and lymphocytes isolated from the spleens and lymph nodes of the immunised mice by means of electroporation, as described in Example 2.
(§2) Initial screening to detect antibodies binding to human heparanase in both direct coating and antibody capture ELISAs as described above identified 800 hybridomas for further testing; 535 IgG2 from Campaign 1 and 2 and 265 IgG4 from Campaign 2. Enzyme inhibition assays and cross species binding to cynomolgus and murine heparanase, in an antibody capture ELISA, identifed 12 antibodies that were taken forward for sub-cloning to provide purified antibodies for further analysis. Subsequently, confirmation of activity against human heparanase (FIGS. 3 and 4) and inhibition of recombinant cynomolgus and murine heparanase activity in the HS-cryptate degradation assay (FIG. 5a-c), together with sequence analysis, identified 8 antibodies that are described in the table below.

[2] = biological target: T2, recombinant human heparanase (Homo sapiens, UniProt Q9Y251); test: ELISA binding to directly coated recombinant human heparanase
T2 construct: Heparanase 8 and 50 kDa sub-units were cloned into pacGP67 as Sma 1-EcoR1 fragments; made in house; host or cells: Hi5 insect cells, baculovirus (pFastBac Dual)
T2 sequence (Q9Y251 158-543 limits assumed): T1 sequence (Q9Y251 158-543 limits assumed)
T2 sequence (Q9Y251 36-109 limits assumed): T1 sequence (Q9Y251 36-109 limits assumed)
Method: as §1, §2

MCF7-Hpa1#19 xenograft = test: Subcutaneous xenograft tumour growth, MCF7-Hpa1#19; format: in vivo, SCID mice; settings: once weekly i.p.; 10E9.1 at 7.5 or 15 mg per kg
Method: MCF7-Hpa1#19 and HCT116 tumour cells were harvested from sub-confluent cultures. A total of 5×10^6 (MCF7-Hpa1#19) or 10^7 (HCT116) tumour cells were inoculated subcutaneously into the flank of male SCID mice. HCT116 tumour cells were implanted in PBS; […] cells were implanted in PBS containing 50% matrigel.
When tumours had attained ˜200 mm^3, tumour bearing mice were randomised into treatment groups and dosed with the following; PBS; an isotype matched control IgG2 antibody, 15 mg per kg; anti-heparanase antibody 10E9.1, 7.5 or 15 mg per kg. All treatments were administered once weekly i.p. Tumour growth was measured twice per week using calipers and tumour volumes calculated according to an ellipsoid volume is formula (3.142/6×length×width×width) from measures of the largest tumour diameter and two opposing widths (FIG. 11).

Recombinant Hpa1 = biological target: T3, Recombinant Hpa1 (Homo sapiens, UniProt Q9Y251); test: Medium resolution Biacore affinity; format: binding; settings: purified antibody captured on CM4 chip; Hpa1 1 nM and 10 nM; 25° C.
T3 construct: Heparanase 8 and 50 kDa sub-units were cloned into pacGP67 as Sma 1-EcoR1 fragments; made in house; host or cells: Hi5 insect cells, baculovirus (pFastBac Dual)
T3 sequence (Q9Y251 158-543 limits assumed): T1 sequence (Q9Y251 158-543 limits assumed)
T3 sequence (Q9Y251 36-109 limits assumed): T1 sequence (Q9Y251 36-109 limits assumed)
Method: For medium resolution Biacore™ tests, cloned and purified antibodies were used. Each of three purified antibodies (10E9.1, 15A1.2, and 15A11.1) were captured onto a high-density goat anti-human antibody surface over a CM4 Biacore™ chip. Recombinant Hpa1 was diluted to the desired concentration (1 nM and 10 nM) in 10 mM HEPES, 150 mM NaCl, 0.005% tween-20, 0.1 mg per ml BSA pH7.4 (25° C.) immediately prior to injection. Data were fit globally to a 1:1 interaction model with a term for mass transport included. The resulting KD values are summarised below in Table 4.

cynomolgus heparanase = test: Cross species capture ELISA, cynomolgus heparanase; format: binding; settings: min 0.06, max 1.5 OD units
Method: Initially, cross species binding to human, murine and cynomolgus heparanase was determined in an ELISA assay in which heparanase was captured onto plates using a rabbit anti-heparanase antibody (Raybiotech, Cat. IP-14-155). Exhaustive supernatants were added to the plates at a final dilution of 1:5 and bound antibody detected with a rabbit anti-human IgG Fc.

Binding to captured heparanase [1]: 0.87 OD units | Binding to direct coated heparanase [2]: 0.2 OD units | ka (Recombinant Hpa1): 2.06e+06 M⁻¹ s⁻¹ | kd (Recombinant Hpa1): 0.000112 s⁻¹ | Binding to heparanase Cyno (cynomolgus heparanase): 1.4 OD units
B1: 10E9.1: fully human anti-heparanase monoclonal antibody, G2κ; VH SEQ ID NO 2, VL SEQ ID NO 4; ATCC PTA-9489 (antibody, listed as Homo Sapiens, V domains shown)
VH: QVQLVQSGAEVKKPGASVKVSCKVSGYSLTELSIHWVRQAPGKGLEWMGGFDPEDGEIIFAQKFQGRVTLTEDISLDTAYMEVSSLRSEDTAVYYCATEGHDSGDYVGYYYYGLDVWGQGTTVTVSS
VL: DIQMTQSPSSLSASVGDRVTITCRASQDIRNFLAWYQQKPGKLPKLLIYAASTLQSGVPSRFSGSGSGTDFTLTISSLQPEDVASYYCQSHNSVPFTFGPGTKVDIR
notes: fully human anti-heparanase monoclonal antibody, G2κ; ATCC PTA-9489
Accumulation of precursor (65 kDa) heparanase in the culture medium (MCF7-Hpa1#19 cells; compared to control IgG2): accumulation of precursor (65 kDa) heparanase in the culture medium | PMA-stimulated increase in intracellular heparanase (MCF7-Hpa1#19 cells; then PMA 0.1-10 μM 2 hrs): appeared to be attenuated | Tumour growth inhibition (MCF7-Hpa1#19 xenograft): not inhibited
